Measured values as given in article PMC2734569, “Functional mapping of the fission yeast DNA polymerase δ B-subunit Cdc1 by site-directed and random pentapeptide insertion mutagenesis” (BMC Molecular Biology, 2009).

What was measured:
Assay in all cases: two-hybrid; LexA-Cdc1 bait (pBTM116 or pBTM116BN) with Gal4-Pol3 prey and co-expressed c-myc-tagged Cdc27 (pAA-Cdc27) in S. cerevisiae CTY10-5d; ONPG liquid culture beta-galactosidase assay, mean of triplicates, as percent of wild-type Cdc1
Settings in all cases: partners not purified
[1] = molecular target: T1, Cdc1-A10 (Schizosaccharomyces pombe, UniProt P87324 1-462, Asn328Ala | Pro329Ala)
T1 construct: Cdc1, S. pombe, double point mutant (A5 and A6 combined); source: yeast two-hybrid fusion, in S. cerevisiae CTY10-5d
T1 sequence (looked up): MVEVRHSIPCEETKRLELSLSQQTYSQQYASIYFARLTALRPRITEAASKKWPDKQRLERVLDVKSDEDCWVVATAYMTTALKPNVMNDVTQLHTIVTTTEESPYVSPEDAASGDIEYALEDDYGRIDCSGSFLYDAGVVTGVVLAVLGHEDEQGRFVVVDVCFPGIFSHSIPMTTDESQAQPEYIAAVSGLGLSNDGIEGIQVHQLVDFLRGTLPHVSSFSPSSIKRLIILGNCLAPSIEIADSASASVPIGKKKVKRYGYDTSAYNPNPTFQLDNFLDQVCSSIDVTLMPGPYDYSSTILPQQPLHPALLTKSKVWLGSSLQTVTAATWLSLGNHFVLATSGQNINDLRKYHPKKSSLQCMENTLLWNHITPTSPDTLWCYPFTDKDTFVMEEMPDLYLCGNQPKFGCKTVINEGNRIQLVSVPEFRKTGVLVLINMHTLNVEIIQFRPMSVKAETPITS

[2] = molecular target: T2, Cdc1-E2 (Schizosaccharomyces pombe, UniProt P87324 1-26)
T2 construct: Cdc1, S. pombe, truncated after amino acid 26 by a 16 nt insertion; residues coded by the 16 nt insertion before the stop codon (printed as GlyValProLysTer); source: yeast two-hybrid fusion, in S. cerevisiae CTY10-5d
T2 chain: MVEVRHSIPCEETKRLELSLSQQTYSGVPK

[3] = molecular target: T3, Cdc1-J6 (Schizosaccharomyces pombe, UniProt P87324 1-462, Tyr-GlyValProHisTyr-Gly)
T3 construct: Cdc1, S. pombe, with a pentapeptide inserted after residue 124; source: yeast two-hybrid fusion, in S. cerevisiae CTY10-5d
T3 sequence (looked up): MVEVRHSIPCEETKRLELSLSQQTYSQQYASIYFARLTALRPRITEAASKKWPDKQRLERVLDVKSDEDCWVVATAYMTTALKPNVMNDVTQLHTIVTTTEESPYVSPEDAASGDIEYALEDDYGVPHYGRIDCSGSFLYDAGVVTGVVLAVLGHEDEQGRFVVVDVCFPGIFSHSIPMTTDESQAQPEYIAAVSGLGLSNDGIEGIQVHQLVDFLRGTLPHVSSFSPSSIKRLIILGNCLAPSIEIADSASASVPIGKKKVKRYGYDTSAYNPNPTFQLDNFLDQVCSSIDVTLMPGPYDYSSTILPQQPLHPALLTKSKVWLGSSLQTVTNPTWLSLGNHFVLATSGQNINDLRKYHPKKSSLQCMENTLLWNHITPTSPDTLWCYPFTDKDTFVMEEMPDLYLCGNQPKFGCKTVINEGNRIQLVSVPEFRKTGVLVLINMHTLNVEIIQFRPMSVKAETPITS

[4] = molecular target: T4, Cdc1-A4 (Schizosaccharomyces pombe, UniProt P87324 1-462, Pro303Ala)
T4 construct: Cdc1, S. pombe, point mutant; source: yeast two-hybrid fusion, in S. cerevisiae CTY10-5d
T4 sequence (looked up): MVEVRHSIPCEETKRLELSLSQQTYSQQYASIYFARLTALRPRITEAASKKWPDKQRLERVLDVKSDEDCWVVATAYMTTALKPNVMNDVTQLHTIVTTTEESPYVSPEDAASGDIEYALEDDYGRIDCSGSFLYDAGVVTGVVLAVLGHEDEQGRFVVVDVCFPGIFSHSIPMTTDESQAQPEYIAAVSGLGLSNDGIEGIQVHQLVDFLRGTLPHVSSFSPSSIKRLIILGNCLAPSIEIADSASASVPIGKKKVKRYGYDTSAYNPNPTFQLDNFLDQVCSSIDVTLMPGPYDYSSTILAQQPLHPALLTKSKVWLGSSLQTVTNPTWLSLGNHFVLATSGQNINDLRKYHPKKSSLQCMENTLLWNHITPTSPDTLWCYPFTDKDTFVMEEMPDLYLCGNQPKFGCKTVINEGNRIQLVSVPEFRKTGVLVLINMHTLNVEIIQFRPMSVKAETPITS

[5] = molecular target: T5, Cdc1-J12 (Schizosaccharomyces pombe, UniProt P87324 1-462, Ser-GlyValProHisSer-Ile)
T5 construct: Cdc1, S. pombe, with a pentapeptide inserted after residue 7; source: yeast two-hybrid fusion, in S. cerevisiae CTY10-5d
T5 sequence (looked up): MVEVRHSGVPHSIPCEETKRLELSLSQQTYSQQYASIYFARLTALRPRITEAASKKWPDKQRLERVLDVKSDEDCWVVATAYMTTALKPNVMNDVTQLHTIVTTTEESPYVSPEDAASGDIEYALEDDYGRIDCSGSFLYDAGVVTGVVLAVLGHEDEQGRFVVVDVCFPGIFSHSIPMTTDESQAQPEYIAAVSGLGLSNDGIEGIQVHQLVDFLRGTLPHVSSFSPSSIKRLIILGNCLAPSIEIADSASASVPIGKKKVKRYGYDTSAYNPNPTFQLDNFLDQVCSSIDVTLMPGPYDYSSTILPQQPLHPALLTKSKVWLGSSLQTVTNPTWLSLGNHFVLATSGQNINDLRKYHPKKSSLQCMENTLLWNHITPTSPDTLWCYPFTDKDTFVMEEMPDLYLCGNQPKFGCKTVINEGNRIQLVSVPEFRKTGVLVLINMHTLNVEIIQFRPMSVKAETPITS

Measured: two-hybrid beta-galactosidase activity, % of wild-type Cdc1

B1: Pol3 (fission yeast DNA polymerase delta catalytic subunit) (natural protein, Schizosaccharomyces pombe, UniProt P30316 1-1086, looked up)
chain: MTDRSSNEGVVLNKENYPFPRRNGSIHGEITDVKRRRLSERNGYGDKKGSSSKEKTSSFEDELAEYASQLDQDEIKSSKDQQWQRPALPAINPEKDDIYFQQIDSEEFTEGSVPSIRLFGVTDNGNSILVHVVGFLPYFYVKAPVGFRPEMLERFTQDLDATCNGGVIDHCIIEMKENLYGFQGNEKSPFIKIFTTNPRILSRARNVFERGEFNFEELFPVGVGVTTFESNTQYLLRFMIDCDVVGMNWIHLPASKYQFRYQNRVSNCQIEAWINYKDLISLPAEGQWSKMAPLRIMSFDIECAGRKGVFPDPSIDPVIQIASIVTQYGDSTPFVRNVFCVDTCSQIVGTQVYEFQNQAEMLSSWSKFVRDVDPDVLIGYNICNFDIPYLLDRAKSLRIHNFPLLGRIHNFFSVAKETTFSSKAYGTRESKTTSIPGRLQLDMLQVMQRDFKLRSYSLNAVCSQFLGEQKEDVHYSIITDLQNGTADSRRRLAIYCLKDAYLPQRLMDKLMCFVNYTEMARVTGVPFNFLLARGQQIKVISQLFRKALQHDLVVPNIRVNGTDEQYEGATVIEPIKGYYDTPIATLDFSSLYPSIMQAHNLCYTTLLDSNTAELLKLKQDVDYSVTPNGDYFVKPHVRKGLLPIILADLLNARKKAKADLKKETDPFKKAVLDGRQLALKVSANSVYGFTGATNGRLPCLAISSSVTSYGRQMIEKTKDVVEKRYRIENGYSHDAVVIYGDTDSVMVKFGVKTLPEAMKLGEEAANYVSDQFPNPIKLEFEKVYFPYLLISKKRYAGLFWTRTDTYDKMDSKGIETVRRDNCPLVSYVIDTALRKMLIDQDVEGAQLFTKKVISDLLQNKIDMSQLVITKALSKTDYAAKMAHVELAERMRKRDAGSAPAIGDRVAYVIIKGAQGDQFYMRSEDPIYVLENNIPIDAKYYLENQLSKPLLRIFEPILGEKASSLLHGDHTRTISMAAPSVGGIMKFAVKVETCLGCKAPIKKGKTALCENCLNRSAELYQRQVAQVNDLEVRFARLWTQCQRCQGSMHQDVICTSRDCPIFYMRIAEHKKLQQSVDLLKRFDEMSW
notes: DNA polymerase delta catalytic subunit Pol3, S. pombe; prey plasmid named pACT-Pol3 in the results and pGAD2F-Pol3 in the methods; also called Gal4-Pol3; pACT-Pol3; source: yeast two-hybrid fusion, in S. cerevisiae CTY10-5d
< 1%: [1] | [2] | [3] | [4] | [5]
